# Laboratory results from paper PMC4104448.
# Target: Biotinylated human CI-MPR domains I-XV (residues 41Q-G2293) (human) (UniProt P11717)
# Assay: SPR; equilibrium binding; about 1,000 RU of biotinylated ligand on a streptavidin-coupled CM5 chip, LIMP-2 as analyte; Biacore T100, 25 °C, 10 mM HEPES pH 7.5, 150 mM NaCl, 0.005% Tween 20; one-site saturation binding model
# Chain of Biotinylated human CI-MPR domains I-XV (residues 41Q-G2293) (human) (P11717 41-2293): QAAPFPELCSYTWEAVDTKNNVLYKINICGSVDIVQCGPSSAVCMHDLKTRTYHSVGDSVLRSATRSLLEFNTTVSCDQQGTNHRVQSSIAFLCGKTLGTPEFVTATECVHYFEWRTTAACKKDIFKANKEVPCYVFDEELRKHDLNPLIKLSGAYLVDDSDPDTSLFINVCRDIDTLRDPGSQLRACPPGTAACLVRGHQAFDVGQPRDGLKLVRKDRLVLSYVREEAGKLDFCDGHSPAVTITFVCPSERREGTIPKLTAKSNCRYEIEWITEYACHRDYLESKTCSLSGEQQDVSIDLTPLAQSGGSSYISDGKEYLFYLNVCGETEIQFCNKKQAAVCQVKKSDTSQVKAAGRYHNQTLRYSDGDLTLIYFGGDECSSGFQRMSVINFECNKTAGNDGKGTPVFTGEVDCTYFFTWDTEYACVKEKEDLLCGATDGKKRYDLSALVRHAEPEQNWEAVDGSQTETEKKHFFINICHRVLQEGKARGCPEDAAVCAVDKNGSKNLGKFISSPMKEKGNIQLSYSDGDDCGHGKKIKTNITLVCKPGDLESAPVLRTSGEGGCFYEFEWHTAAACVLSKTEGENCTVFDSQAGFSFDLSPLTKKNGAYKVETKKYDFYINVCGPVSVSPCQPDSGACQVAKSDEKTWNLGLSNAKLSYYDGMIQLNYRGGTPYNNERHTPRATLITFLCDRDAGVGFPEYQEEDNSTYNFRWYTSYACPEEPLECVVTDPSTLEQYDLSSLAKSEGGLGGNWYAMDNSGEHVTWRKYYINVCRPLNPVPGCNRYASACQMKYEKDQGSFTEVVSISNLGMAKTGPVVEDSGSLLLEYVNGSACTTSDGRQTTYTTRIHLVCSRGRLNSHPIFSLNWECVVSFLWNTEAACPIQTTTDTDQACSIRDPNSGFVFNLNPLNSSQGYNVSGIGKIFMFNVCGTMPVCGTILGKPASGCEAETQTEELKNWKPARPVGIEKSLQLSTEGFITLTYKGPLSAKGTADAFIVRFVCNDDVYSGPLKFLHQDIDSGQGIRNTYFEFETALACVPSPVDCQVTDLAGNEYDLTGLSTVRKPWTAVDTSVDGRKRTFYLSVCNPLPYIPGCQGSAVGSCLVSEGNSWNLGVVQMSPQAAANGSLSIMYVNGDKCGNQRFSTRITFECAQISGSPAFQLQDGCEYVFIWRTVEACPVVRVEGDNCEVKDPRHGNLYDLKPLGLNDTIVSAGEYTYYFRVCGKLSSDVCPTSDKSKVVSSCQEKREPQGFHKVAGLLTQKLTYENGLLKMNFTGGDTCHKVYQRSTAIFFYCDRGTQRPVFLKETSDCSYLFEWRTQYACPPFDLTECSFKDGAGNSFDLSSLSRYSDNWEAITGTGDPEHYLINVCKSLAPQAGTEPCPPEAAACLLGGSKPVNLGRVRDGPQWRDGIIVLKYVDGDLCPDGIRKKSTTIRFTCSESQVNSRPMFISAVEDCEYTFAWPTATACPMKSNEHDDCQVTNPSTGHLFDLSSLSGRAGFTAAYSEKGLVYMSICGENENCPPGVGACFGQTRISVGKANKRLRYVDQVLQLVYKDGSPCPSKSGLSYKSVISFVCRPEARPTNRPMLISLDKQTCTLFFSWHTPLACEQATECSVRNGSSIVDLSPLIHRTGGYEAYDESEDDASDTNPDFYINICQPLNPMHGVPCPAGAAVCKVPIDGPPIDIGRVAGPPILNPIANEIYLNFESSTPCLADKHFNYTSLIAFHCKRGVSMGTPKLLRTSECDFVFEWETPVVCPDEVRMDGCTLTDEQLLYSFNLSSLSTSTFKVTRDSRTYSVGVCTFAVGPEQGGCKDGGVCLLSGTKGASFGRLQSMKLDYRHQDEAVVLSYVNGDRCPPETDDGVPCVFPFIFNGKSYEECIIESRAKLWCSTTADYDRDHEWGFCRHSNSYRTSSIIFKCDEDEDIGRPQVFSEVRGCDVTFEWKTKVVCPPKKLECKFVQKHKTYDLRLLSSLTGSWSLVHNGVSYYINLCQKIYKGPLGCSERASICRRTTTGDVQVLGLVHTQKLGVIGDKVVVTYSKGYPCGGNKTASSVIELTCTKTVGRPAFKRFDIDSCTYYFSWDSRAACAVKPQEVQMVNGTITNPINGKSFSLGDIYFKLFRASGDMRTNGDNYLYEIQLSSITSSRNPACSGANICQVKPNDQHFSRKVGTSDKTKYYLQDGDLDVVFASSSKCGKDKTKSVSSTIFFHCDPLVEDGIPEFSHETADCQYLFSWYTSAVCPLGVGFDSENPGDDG
row,Substance,Kd [nM]
1,"Human LIMP-2 luminal domain (residues 28-431) produced from HEK293S (GnTI-) cells, with limited glycosylation (from UniProt Q14108 28-431) (domain or fragment)",2200
2,"Human LIMP-2 luminal domain (residues 28-431) produced from HEK293T cells, with full glycosylation (from UniProt Q14108 28-431) (domain or fragment)",970
